The source of these data is patent EP4729537A1 (Universitat Politècnica de València, dated 2024).

In assay [1] the target is T1, antigenic protein: class A β-lactamase fragment of Mycobacterium abscessus (Blamab gene) with C-terminal TEV … (Mycobacterium abscessus). Kind of assay: cell-based or functional assay.
Assay [2] addresses T1, antigenic protein: class A β-lactamase …. Nature of the assay: nitrocefin hydrolysis assay with purified enzyme, Lineweaver-Burk.
For assay [3], the target named is T2, VIM-2 from Pseudomonas aeruginosa, expressed in the periplasm of E. coli BL21(DE3) (Pseudomonas aeruginosa). Nature of the assay: cell-based or functional assay.
The target of assay [4] is T3, KPC-2 from Klebsiella pneumoniae, expressed in the periplasm of E. coli BL21(DE3) (Klebsiella pneumoniae, UniProt Q848S6 25-293). Nature of the assay: cell-based or functional assay.
Assay [5] deals with T4, OXA-48 from Klebsiella pneumoniae, expressed in the periplasm of E. coli BL21(DE3) (Klebsiella pneumoniae, UniProt Q6XEC0 23-265, limits assumed). Kind of assay: cell-based or functional assay.
Assay [6] concerns the target T2, VIM-2 from Pseudomonas aeruginosa, …. Nature of the assay: nitrocefin assay on E. coli BL21(DE3) cells with the β-lactamase in the periplasm.
For assay [7], the target named is T3, KPC-2 from Klebsiella pneumoniae, …. The description is as above.
Assay [8] addresses T4, OXA-48 from Klebsiella pneumoniae, …. The assay is described as above.

B1: β-lactamase inhibitor B6 antibody (VHH)
VHH: QVQLQESGGGLVQAGGSLRLSCAASGTISAVSGMGWYRQAPGKEREFVASINRGSTTNYADSVKGRFTISRDNAKNTVYLQMNSLKPEDTAVYYCAALHGTGRVHVYWGQGTQVTVSS
notes: sdAb from a synthetic naive yeast display library; expressed from pET26b in the E. coli periplasm and purified by chromatography; also called sdAb B6
On to B1, for which, in assay [1], the “Km (µM), with antibody” value was 53.3 µM and the “Vmax (µM/min), with antibody” value is 0.26 µM/min. For the same molecule, the Ki (usually the dissociation constant of the complex between target and ligand, obtained from inhibition or displacement) in assay [2] is 4.9 µM.

B2: β-lactamase inhibitor B5 antibody (VHH)
VHH: QVQLQESGGGLVQAGGSLRLSCAASGNISDLGTMGWYRQAPGKEREFVAGIGTGSNTYYADSVKGRFTISRDNAKNTVYLQMNSLKPEDTAVYYCAVIAGRSYWIYFYYWGQGTQVTVSS
notes: sdAb from a synthetic naive yeast display library; expressed from pET26b in the E. coli periplasm and purified by chromatography; also called sdAb B5
Regarding B2, the “Km (µM), with antibody” value in assay [1] is 57.3 µM. The “Vmax (µM/min), with antibody” value in assay [1] was found to be 0.23 µM/min. Moreover, the Ki was found to be 3.8 µM in assay [2], 68.9 µM in assay [6], 0.12 µM in assay [7] and 30.8 µM in assay [8]. In addition, the “Km(µM), with B5” value came to 0.97 µM in assay [3], 2.19 µM in assay [4] and 2.26 µM in assay [5]. For the same molecule, the entries for the “Vmax(µM/min), with B5” value in assay [3], in assay [4] and in assay [5] were 0.0084 µM/min, 0.5 µM/min and 0.061 µM/min, respectively.

B3: β-lactamase inhibitor B2 antibody (VHH)
VHH: QVQLQESGGGLVQAGGSLRLSCAASGTIFVYPYMGWYRQAPGKEREFVAGIGQGATTYYADSVKGRFTISRDNAKNTVYLQMNSLKPEDTAVYYCAAYRYRDDVRRYGIDRYHTYWGQGTQVTVSS
notes: sdAb from a synthetic naive yeast display library; expressed from pET26b in the E. coli periplasm and purified by chromatography; also called sdAb B2
For the molecule B3, the “Km (µM), with antibody” value in assay [1] is 64.4 µM. The “Vmax (µM/min), with antibody” value in assay [1] was found to be 0.25 µM/min. Also, the Ki was found to be 2.4 µM in assay [2], 2.9 µM in assay [6], 0.06 µM in assay [7] and 10.5 µM in assay [8]. The “Km(µM), with B2” value in assay [3] was determined as 39.6 µM; in assay [4], 121 µM; in assay [5], 6.62 µM. Besides, the results for the “Vmax(µM/min), with B2” value in assay [3], in assay [4] and in assay [5] were 0.017 µM/min, 0.7 µM/min and 0.059 µM/min, respectively.

B4: β-lactamase inhibitor B4 antibody (VHH)
VHH: QVQLQESGGGLVQAGGSLRLSCAASGTIFAQDYMGWYRQAPGKEREFVASIAYGTITYYADSVKGRFTISRDNAKNTVYLQMNSLKPEDTAVYYCAVYPTPVTDYIYWGQGTQVTVSS
notes: sdAb from a synthetic naive yeast display library; expressed from pET26b in the E. coli periplasm and purified by chromatography; also called sdAb B4
Consider B4, for which, in assay [1], the “Km (µM), with antibody” value came to 45.6 µM and the “Vmax (µM/min), with antibody” value was found to be 0.28 µM/min. In assay [2], the affinity corresponds to a Ki of 5.2 µM.

B5: β-lactamase inhibitor B3 antibody (VHH)
VHH: QVQLQESGGGLVQAGGSLRLSCAASGTIFYYPYMGWYRQAPGKEREFVAGIDYGSTTYYADSVKGRFTISRDNAKNTVYLQMNSLKPEDTAVYYCAVVYLVTRKGASQQDEIYSYWGQGTQVTVSS
notes: sdAb from a synthetic naive yeast display library; expressed from pET26b in the E. coli periplasm and purified by chromatography; also called sdAb B3
In the case of B5, in assay [1], the “Km (µM), with antibody” value was found to be 51.9 µM and the “Vmax (µM/min), with antibody” value turned out to be 0.34 µM/min. The same molecule registered a Ki in assay [2] of 2.7 µM.

B6: single domain antibody B1 (VHH)
VHH: QVQLQESGGGLVQAGGSLRLSCAASGNIFTVSSMGWYRQAPGKEREFVAAISDGATTNYADSVKGRFTISRDNAKNTVYLQMNSLKPEDTAVYYCAAYASRVGLTVYWGQGTQVTVSS
notes: sdAb from a synthetic naive yeast display library; expressed from pET26b in the E. coli periplasm and purified by chromatography; also called sdAb B1
With B6, in assay [1], the “Km (µM), with antibody” value amounted to 42.6 µM and the “Vmax (µM/min), with antibody” value is 0.26 µM/min. In assay [2], this molecule returned an inhibitory constant (Ki) of 15.6 µM.
